Experiments:
[1] = target: 20-mer V3 peptide of HIVSF2 (HIV-1 isolate SF-2); assay: competition ELISA in solution at equilibrium (Friguet method)
[2] = target: 22-mer V3 peptide of HXB2 (HIV-1 HXB2 (IIIB)); assay: as above
[3] = target: gp120 of HIV-1 isolate WMJ-2 (HIV-1 isolate WMJ-2)
[4] = target: gp120 of HIV-1 isolate SF-2 (virus) (HIV-1 isolate SF-2) (UniProt P03378)
[5] = target: gp120 of HIV-1 isolate AL-1 (HIV-1 isolate AL-1)
[6] = target: gp120 of HIVMN (HIV-1 strain MN) (UniProt P05877)
[7] = target: gp120 of HTLV-IIIB (HIV-1 isolate IIIB)
[8] = target: gp120 of HIV-1 isolate RF (HIV-1 isolate RF) (UniProt P04579)
[9] = target: gp120 of HIV-1 isolate DU 7887-7 (HIV-1 isolate DU 7887-7)
[10] = target: V3-WM52 peptide (HIV-1 isolate WM52); assay: ELISA on V3 peptide coated plates, mAb at 10 µg/ml
[11] = target: 20-mer V3 peptide of HIVSF2 (HIV-1 isolate SF-2); assay: ELISA on V3 peptide coated plates, mAb at 10 µg/ml
[12] = target: 23-mer peptide of the gp120 V3 loop of the MN strain of HIV-1 (HIV-1 strain MN); assay: ELISA on V3 peptide coated plates, mAb at 10 µg/ml
[13] = target: 22-mer V3 peptide of HXB2 (HIV-1 HXB2 (IIIB)); assay: ELISA on V3 peptide coated plates, mAb at 10 µg/ml
[14] = target: V3-RF peptide (HIV-1 isolate RF); assay: ELISA on V3 peptide coated plates, mAb at 10 µg/ml
[15] = target: V3-CDC4 peptide (HIV-1 isolate CDC4); assay: ELISA on V3 peptide coated plates, mAb at 10 µg/ml
[16] = target: V3-NY5 peptide (HIV-1 isolate NY5); assay: ELISA on V3 peptide coated plates, mAb at 10 µg/ml
[17] = target: V3-SC peptide (HIV-1 isolate SC); assay: ELISA on V3 peptide coated plates, mAb at 10 µg/ml
[18] = target: heptapeptide IGPGRAF (pin 11) (HIV-1 strain MN); assay: pin ELISA, heptapeptide on pin, mAb at 10 µg/ml
[19] = target: heptapeptide RAFYTTK (pin 15) (HIV-1 strain MN); assay: pin ELISA, heptapeptide on pin, mAb at 10 µg/ml
[20] = target: heptapeptide HIGPGRA (pin 10) (HIV-1 strain MN); assay: pin ELISA, heptapeptide on pin, mAb at 10 µg/ml
[21] = target: heptapeptide PGRAFYT (pin 13) (HIV-1 strain MN); assay: pin ELISA, heptapeptide on pin, mAb at 10 µg/ml
[22] = target: heptapeptide GPGRAFY (pin 12) (HIV-1 strain MN); assay: pin ELISA, heptapeptide on pin, mAb at 10 µg/ml
[23] = target: heptapeptide GRAFYTT (pin 14) (HIV-1 strain MN); assay: pin ELISA, heptapeptide on pin, mAb at 10 µg/ml
[24] = target: gp120 of HTLV-IIIB (HIV-1 isolate IIIB); remark: listed apart in the source

In the case of human mAb 694-D (antibody), the Kd [1] is reported as 1.8 µM, the Kd [2] is reported as 12 µM and the neutralization endpoint, MT-4 cell killing assay [3] is reported as 6.25 µg/mL. It also gave a neutralization endpoint, MT-4 cell killing assay [4] of 0.04 µg/mL, a neutralization endpoint, MT-4 cell killing assay [5] of 0.04 µg/mL and a neutralization endpoint, MT-4 cell killing assay [6] of 3.13 µg/mL. It also gave a neutralization endpoint, MT-4 cell killing assay [7] of 0.78 µg/mL, a neutralization endpoint, MT-4 cell killing assay [8] of over 25 µg/mL and a neutralization endpoint, MT-4 cell killing assay [9] of over 25 µg/mL. It also gave a minimum antigen concentration giving positive results (µg/ml of V3 peptide used to coat) [10] of 0.6, a minimum antigen concentration giving positive results (µg/ml of V3 peptide used to coat) [11] of 0.01 and a minimum antigen concentration giving positive results (µg/ml of V3 peptide used to coat) [12] of 0.01. It also gave a minimum antigen concentration giving positive results (µg/ml of V3 peptide used to coat) [13] of 0.1, a minimum antigen concentration giving positive results (µg/ml of V3 peptide used to coat) [14] of 1 and a minimum antigen concentration giving positive results (µg/ml of V3 peptide used to coat) [15] of 1. The minimum antigen concentration giving positive results (µg/ml of V3 peptide used to coat) [16] was 1, the minimum antigen concentration giving positive results (µg/ml of V3 peptide used to coat) [17] was 0.02 and the ELISA Reactivity (absorbance at 410 nm) (absorbance at 410 nm) [18] was 1.37. The ELISA Reactivity (absorbance at 410 nm) (absorbance at 410 nm) [19] was 0.089, the ELISA Reactivity (absorbance at 410 nm) (absorbance at 410 nm) [20] was 0.14 and the ELISA Reactivity (absorbance at 410 nm) (absorbance at 410 nm) [21] was 1.4. For the same substance, the ELISA Reactivity (absorbance at 410 nm) (absorbance at 410 nm) [22] was over 2, the ELISA Reactivity (absorbance at 410 nm) (absorbance at 410 nm) [23] was 1.23 and the 50% neutralization, CEM-SS syncytium-forming assay, IgG concentration [24] was 0.04 µg/mL. It also gave a 90% neutralization, CEM-SS syncytium-forming assay, IgG concentration [24] of 1.4 µg/mL.

From patent US5914109
